Where a chain is given by its changes, count along the chain named. Numbers in names are those of the source. Entries after “also recorded” stand apart in the source; their conditions may differ.
B1: CPG2*(N222L) (enzyme)
chain: ALAQKRDNVLFQAATDEQPAVIKTLEKLVNIETGTGDAEGIAAAGNFLEAELKNLGFTVTRSKSAGLVVGDNIVGKIKGRGGKNLLLMSHMDTVYLKGILAKAPFRVEGDKAYGPGIADDKGGNAVILHTLKLLKEYGVRDYGTITVLFNTDEEKGSFGSRDLIQEEAKLADYVLSFEPTSAGDEKLSLGTSGIAYVQVLITGKASHAGAAPELGVNALVEASDLVLRTMNIDDKAKNLRFNWTIAKAGNVSNIIPASATLNADVRYARNEDFDAAMKTLEERAQQKKLPEADVKVIVTRGRPAFNAGEGGKKLVDKAVAYYKEAGGTLGVEERTGGGTDAAYAALSGKPVIESLGLPGFGYHSDKAEYVDISAIPRRLYMAARLIMDLGAGK
notes: Cytosolic form expressed in COS cells
B2: CPG2*(QTQ): cytosolic CPG2*(Q)3 with the glutamine at position 264 substituted with threonine (protein)
chain: B1 chain with L200Q, N242T, N250Q
B3: CPG2*(QAQ): cytosolic CPG2*(Q)3 with the glutamine at position 264 substituted with alanine (protein)
chain: B1 chain with L200Q, N242A, N250Q
B4: CPG2*(N264L): cytosolic CPG2* with N to L substitution at position 264 (protein)
chain: B1 chain with L200N, N242L
B5: CPG2*(Q)3: cytosolic CPG2* bearing three asparagine to glutamine mutations (N222, N264, N272) (protein)
chain: B1 chain with L200Q, N242Q, N250Q
B6: CPG2*(QSQ) (enzyme)
chain: B1 chain with L200Q, N242S, N250Q
notes: also called COS/CPG2* (QSQ)
B7: CPG2*(N272): cytosolic CPG2* with N to L substitution at position 272 (protein)
chain: B1 chain with L200N, N250L
B8: stCPG2(QTQ): surface tethered CPG2, Q222, T264, Q272 (protein)
chain: ALAQKRDNVLFQAATDEQPAVIKTLEKLVNIETGTGDAEGIAAAGNFLEAELKNLGFTVTRSKSAGLVVGDNIVGKIKGRGGKNLLLMSHMDTVYLKGILAKAPFRVEGDKAYGPGIADDKGGNAVILHTLKLLKEYGVRDYGTITVLFNTDEEKGSFGSRDLIQEEAKLADYVLSFEPTSAGDEKLSLGTSGIAYVQVQITGKASHAGAAPELGVNALVEASDLVLRTMNIDDKAKNLRFTWTIAKAGQVSNIIPASATLNADVRYARNEDFDAAMKTLEERAQQKKLPEADVKVIVTRGRPAFNAGEGGKKLVDKAVAYYKEAGGTLGVEERTGGGTDAAYAALSGKPVIESLGLPGFGYHSDKAEYVDISAIPRRLYMAARLIMDLGAGKDLDDKGCPAEQRASPLTSIISAVVGILLVVVLGVVFGILIKRRQQKIRKYT
B9: stCPG2(QAQ): surface tethered CPG2, Q222, A264, Q272 (protein)
chain: B8 chain with T242A
B10: stCPG2(QSQ): surface tethered CPG2, Q222, S264, Q272 (protein)
chain: B8 chain with T242S
B11: COS/stCPG2 (Q, NWV, Q): CPG2 with T266 altered to V266 in the context of Q222 and Q272 (protein, UniProt P06621 23-415, looked up, variant N222Q T266V N272Q)
Carboxypeptidase G2: B1 chain with L200Q, T244V, N250Q
modifications: surface tethered
notes: CPG2 with T266 altered to V266 in the context of Q222 and Q272

Tested on: not listed separately
Assay: CPG2 dimer stability by non-reducing SDS-polyacrylamide gel electrophoresis of COS cell extracts
Details: sample not heated
Excerpt: To test this, CPG2* was transiently expressed in COS cells and the stability of the dimers determined by non-reducing SDS-polyacrylamide gels.

Row | Molecule | dimer stability
1 | B1 | formed stable dimers
2 | B2 | did not restore dimer stability; also recorded: not improved
3 | B3 | did not restore dimer stability; also recorded: not improved
4 | B4 | migrated as a monomer
5 | B5 | unstable
6 | B6 | improved; also recorded: restored weak dimer stability
7 | B7 | formed stable dimers
8 | B8 | did nor form stable dimers
9 | B9 | did nor form stable dimers
10 | B10 | weak dimers

Molecular target: the molecule itself
Assay: non-reducing SDS-PAGE of COS cell extracts (homodimer)
Details: not given

Row | Molecule | binding result
11 | B1 | binds
12 | B6 | binds

Tested on: not listed separately
Assay: Enzyme kinetic studies of CPG2-derived enzymes in detergent soluble cell extracts, MTX as substrate
Assay type: biochemical
Details: increase relative to CPG2*(Q)3
Excerpt: Detergent soluble cell extracts, and enzyme kinetic analyses have been described previously (Marais et al (1996) Cancer Res. 56, 4735-4742; Marais et al (1997) Nature Biotech. 15, 1373-1377).

Row | Molecule | catalytic activity compared to CPG2*(Q)3
13 | B2 | ~2.5 fold
14 | B6 | almost twice as active

Same assay, conditions: relative to CPG2*(Q)3

Row | Molecule | increase in Km (decrease in apparent affinity for MTX) compared to CPG2*(Q)3 [fold]
15 | B2 | ~12
16 | B6 | ~6

Same assay, conditions: specific activity of COS/CPG2* (50 ng CPG2*) assigned as 100%

Row | Molecule | Catalytic activity (%)
17 | B2 | 78%
18 | B3 | essentially inactive
19 | B11 | 55%
20 | B6 | 58%
21 | B8 | 29%
22 | B9 | 38%
23 | B10 | 40%

Same assay, conditions: specific activity of COS/CPG2* (50 ng CPG2*) assigned as 100%; listed as COS/CPG2* (QAQ)

Row | Molecule | Catalytic activity (%)
24 | B3 | Very low

Same assay, conditions: substrate MTX; detergent soluble cell extract; read-out: Km (μM MTX)

Row | Molecule | Km [µM]
25 | B2 | 125
26 | B11 | 90
27 | B6 | 58
28 | B8 | 45
29 | B9 | 69
30 | B10 | 51

Same assay, conditions: unit μm [sic]; read-out: Km

Row | Molecule | Km [µM]
31 | B11 | 90

— patent US20040014187A1, “Bacterial carboxypeptidase cpg2 variants and their use in gene directed enzyme prodrug therapy” (priority 2000, published 2004)
